Experimental findings from article PMC8621594 are described below.

In experiment [1] the target is human C1s (human).
The target in experiment [2] is human C1s (human). This is another data set of the same source.

Sequence of recombinant human C1 esterase inhibitor (rhC1INH) from Chinese hamster ovary (CHO) cells (P05155 23-500): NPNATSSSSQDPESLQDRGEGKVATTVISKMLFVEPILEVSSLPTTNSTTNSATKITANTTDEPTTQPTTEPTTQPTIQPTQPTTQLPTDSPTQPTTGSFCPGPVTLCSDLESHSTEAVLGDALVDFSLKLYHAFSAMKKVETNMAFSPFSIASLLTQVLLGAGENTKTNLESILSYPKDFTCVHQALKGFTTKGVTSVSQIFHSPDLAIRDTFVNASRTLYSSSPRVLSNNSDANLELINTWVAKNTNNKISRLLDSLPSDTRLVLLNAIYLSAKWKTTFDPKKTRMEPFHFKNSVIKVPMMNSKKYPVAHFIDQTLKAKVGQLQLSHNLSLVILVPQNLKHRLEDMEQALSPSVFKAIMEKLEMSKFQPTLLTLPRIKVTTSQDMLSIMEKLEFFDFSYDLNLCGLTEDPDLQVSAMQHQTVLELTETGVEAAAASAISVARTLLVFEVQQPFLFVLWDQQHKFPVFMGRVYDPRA

As to “recombinant human C1 esterase inhibitor (rhC1INH) from Chinese hamster ovary (CHO) cells (from UniProt P05155 23-500) (natural protein)”, in experiment [1], the IC50 of the inhibition of human serum complement (lysis of chicken erythrocytes), rhC1INH 0.0099 to 20.25 IU/mL; printed as activity against human C1-esterase in the blood serum is 1.85 IU/mL. In experiment [2], this substance showed a Biological Activity, U/mL: inhibition of the C1s subunit, chromogenic method (TECHNOCHROM C1-INH Kit) of 175 U/mL and a Specific Activity, U/mg: inhibition of the C1s subunit, chromogenic method (TECHNOCHROM C1-INH Kit) of 9.5 U/mg.
